Test results as given in article PMC8883962.

Assays:
[1] = target: Staphylococcal Protein A (SpA) (Staphylococcus aureus) (UniProt P38507); assay: BLI
[2] = target: Streptococcal Protein G (SpG) (groups C and G of Streptococcal bacteria) (UniProt P06654); assay: BLI

| Substance | Kd [1] [nM] | Kd [2] [nM] |
| --- | --- | --- |
| Pertuzumab Vκ2–VH2 IgG1 (from UniProt P01857) | 1.82 | 0.36 |
| Pertuzumab Vκ2–VH3 IgG1 (from UniProt P01857) | 0.76 | 0.38 |
| Pertuzumab Vκ2–VH4 IgG1 (from UniProt P01857) | 1.57 | 0.25 |
| Pertuzumab Vκ2–VH5 IgG1 (from UniProt P01857) | 1.62 | 0.3 |
| Pertuzumab Vκ2–VH6 IgG1 (from UniProt P01857) | 1.55 | 0.32 |
| Pertuzumab Vκ2–VH7 IgG1 (from UniProt P01857) | – | 0.36 |
| Pertuzumab Vκ5–VH3 IgG1 (from UniProt P01857) | 0.94 | 0.34 |
| Pertuzumab Vκ5–VH7 IgG1 (from UniProt P01857) | – | 0.32 |
| Pertuzumab Vκ6–VH1 IgG1 (from UniProt P01857) | 0.94 | 0.29 |
| Pertuzumab Vκ6–VH2 IgG1 (from UniProt P01857) | 0.79 | 0.31 |
| Pertuzumab Vκ6–VH3 IgG1 (from UniProt P01857) | 0.41 | 0.28 |
| Pertuzumab Vκ6–VH4 IgG1 (from UniProt P01857) | 0.81 | 0.27 |
| Pertuzumab Vκ6–VH5 IgG1 (from UniProt P01857) | 1.26 | 0.26 |
| Pertuzumab Vκ6–VH7 IgG1 (from UniProt P01857) | 0.98 | 0.28 |
| Trastuzumab Vκ2–VH1 IgG1 (from UniProt P01857) | – | 0.39 |
| Trastuzumab Vκ2–VH2 IgG1 (from UniProt P01857) | 1.46 | 0.69 |
| Trastuzumab Vκ2–VH3 IgG1 (from UniProt P01857) | 0.24 | 0.29 |
| Trastuzumab Vκ2–VH4 IgG1 (from UniProt P01857) | 1.29 | 0.28 |
| Trastuzumab Vκ2–VH5 IgG1 (from UniProt P01857) | 1.11 | 0.27 |
| Trastuzumab Vκ2–VH6 IgG1 (from UniProt P01857) | 1.79 | – |
| Trastuzumab Vκ2–VH7 IgG1 (from UniProt P01857) | 0.53 | 0.23 |
| Trastuzumab Vκ5–VH3 IgG1 (from UniProt P01857) | – | 0.32 |
| Trastuzumab Vκ6–VH1 IgG1 (from UniProt P01857) | – | 0.32 |
| Trastuzumab Vκ6–VH3 IgG1 (from UniProt P01857) | 0.31 | 0.27 |
| Trastuzumab Vκ6–VH4 IgG1 (from UniProt P01857) | – | 0.36 |
| Trastuzumab Vκ6–VH5 IgG1 (from UniProt P01857) | 0.84 | – |
| Trastuzumab Vκ6–VH6 IgG1 (from UniProt P01857) | 1.78 | 0.51 |
| Trastuzumab Vκ6–VH7 IgG1 (from UniProt P01857) | 0.6 | 0.3 |
